Legend:
[1] = biological target: T1, TRCW5 antigen (CD3δε-Fc-Avi) (biotinylated (site not stated)); assay: ELISA after heat
T1 construct: also called recombinant CD3

[2] = biological target: T2, CD3 on primary human pan T cells (human, UniProt P07766 23-207); assay: flow cytometry, pan T-cells
T2 construct: on cells it stands in the TCR/CD3 complex; also called Pan T-cells (CD3-positive); endogenous CD3
Method: ELISA assays for binding to recombinant CD3 (TRCW5, SEQ ID NO: 39) were performed as above. Cell binding was performed using primary human T cell and Jurkat cells by flow cytometry. Briefly, E. coli expressed anti CD3 ScFv supernatants, either at room temperature, or 55° C., 60° C. or 65° C. heat treated samples.
Pan T-cells (CD3-positive) and Jurkat-CD3-negative cells were prepared by staining Jurkat-CD3-negative cells with CFSE while keeping pan T-cells unstained. Jurkat-CD3-negative cell suspensions were resuspended at 20 million cells per each 50 mL conical tube. Cells were harvested by centrifugation at 400×g for 5 minutes and resuspended in DPBS followed by washing 2× in DPBS. Cells were stained with 1:25,000 dilution for a final dye concentration of 0.02 uM CFSE (2 uL of staining solution to 50 mL of cell suspension). Cells were incubated for 10 minutes at room temperature and centrifuged for 5 minutes at 400×g. After removal of supernatant, 3 mL of HI-FBS were added to the cell pellet, mixed and centrifuged for 5 min at 400×g. Supernatant was removed and cells were resuspended in BD stain buffer at 2×10\hat{ }6 cells/mL and incubated on ice or 4 C protected from light. Human pan T cells were thawed at 37 C and transferred gently into a conical tube containing 15 mL of warm or RT culture media (RPMI+10% FBS). […] Cells were harvested by centrifugation at 400×g for 5 min and resuspended in culture media (RPMI+10% HI-FBS). Pan T-cells (without staining) were prepared at 2×10\hat{ }6 cells/mL in flow staining buffer. Equal volumes of CFSE stained Jurkat-CD3-negative cells and unstained T-cells (CD3-positive) cells were mixed and plated 50 uL/well into assay plates. 50 uL/well neat bacterial supernatant samples and control sample (CD3W36 ScFv) were added to each well and plates were incubated 1 hr at 4 C or. Cells were harvested by centrifugation at 400×g for 4 min and 150 uL staining buffer were added to all wells, followed by centrifugation at 400×g for 4 min to pellet cells. To each well, 150 uL staining buffer were added followed by centrifugation at 400×g for 4 minutes to pellet cells.

T2 sequence (P07766 23-207 limits assumed): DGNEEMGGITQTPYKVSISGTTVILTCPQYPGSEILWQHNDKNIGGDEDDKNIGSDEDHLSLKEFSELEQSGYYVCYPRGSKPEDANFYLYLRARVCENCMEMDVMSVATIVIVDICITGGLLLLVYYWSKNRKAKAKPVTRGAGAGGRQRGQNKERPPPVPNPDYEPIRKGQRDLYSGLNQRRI
T1 sequence (chain, as listed by the source mutant limits assumed): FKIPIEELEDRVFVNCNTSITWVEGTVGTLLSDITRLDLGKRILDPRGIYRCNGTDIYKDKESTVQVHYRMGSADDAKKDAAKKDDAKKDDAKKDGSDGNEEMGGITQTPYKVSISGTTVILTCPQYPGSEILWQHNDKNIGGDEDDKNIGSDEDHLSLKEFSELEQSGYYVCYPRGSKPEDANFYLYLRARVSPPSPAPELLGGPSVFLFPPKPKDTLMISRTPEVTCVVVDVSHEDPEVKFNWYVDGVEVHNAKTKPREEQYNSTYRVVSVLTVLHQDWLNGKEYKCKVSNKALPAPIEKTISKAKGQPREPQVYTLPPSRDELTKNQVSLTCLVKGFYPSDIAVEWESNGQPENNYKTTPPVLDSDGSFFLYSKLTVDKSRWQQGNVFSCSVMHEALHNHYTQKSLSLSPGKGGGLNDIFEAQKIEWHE

| % Retained 55° C. [1] | % Retained 60° C. [1] | % Retained 65° C. [1] | % Binding retained on T-cells, 55° C. [2] | % Binding retained on T-cells, 60° C. [2] | % Binding retained on T-cells, 65° C. [2] | % Binding retained on T-cells, RT [2] | Binder |
| --- | --- | --- | --- | --- | --- | --- | --- |
| 103% | 103% | 38% | 0.866 fraction | 0.784 fraction | 0.387 fraction | 1 fraction | CD3B2034 (scFv) scFv: QVQLVQSGAEVKKPGSSVKVSCKASGYTFTRSTMHWVKQAPGQGLEWMGYINPSSAYTNYNQKFQGRVTLTADKSTSTAYMELSSLRSEDTAVYYCASPQVHYDYNGFPYWGQGTLVTVSSGGSEGKSSGSGSESKSTGGSEIVLTQSPATLSASPGERVTLSCSASSSVSYMNWYQQKPGQSPRRWIYDSSKLASGVPARFSGSGSGRDYTLTISSLEPEDFAVYYCQQWSRNPPTFGGGTKVEIK |
| 102% | 103% | 23% | 1.07 fraction | 0.986 fraction | 0.061 fraction | 1 fraction | CD3B2037 (scFv) scFv: QVQLVQSGAEVKKPGSSVKVSCKASGYTFTRSTMHWVKQAPGQGLEWMGYINPSSAYTNYAQKFQGRVTLTADKSTSTAYMELSSLRSEDTAVYYCASPQVHYDYNGFPYWGQGTLVTVSSGGSEGKSSGSGSESKSTGGSEIVLTQSPATLSASPGERVTLSCSASSSVSYMNWYQQKPGTSPRRLIYDSSKLASGVPARFSGSGSGRDYTLTISSLEPEDFAVYYCQQWSRNPPTFGGGTKVEIK |
| 111% | 105% | 28% | 1.05 fraction | 0.997 fraction | 0.296 fraction | 1 fraction | CD3B2045 (scFv) scFv: QVQLVQSGAEVKKPGSSVKVSCKASGYTFTRSTMHWVRQAPGQGLEWIGYINPSSAYTNYNQKFQGRVTLTADKSTSTAYMELSSLRSEDTAVYYCASPQVHYDYNGFPYWGQGTLVTVSSGGSEGKSSGSGSESKSTGGSEIVLTQSPATLSASPGERVTLSCSASSSVSYMNWYQQKPGQAPRRWIYDSSKLASGVPARFSGSGSGRDYTLTISSLEPEDFAVYYCQQWSRNPPTFGGGTKVEIK |
| 105% | 98% | 22% | 1.03 fraction | 1.1 fraction | 0.279 fraction | 1 fraction | CD3B2038 (scFv) scFv: QVQLVQSGAEVKKPGSSVKVSCKASGYTFTRSTMHWVKQAPGQGLEWMGYINPSSAYTNYAQKFQGRVTLTADKSTSTAYMELSSLRSEDTAVYYCASPQVHYDYNGFPYWGQGTLVTVSSGGSEGKSSGSGSESKSTGGSEIVLTQSPATLSASPGERVTLSCSASSSVSYMNWYQQKPGTAPRRLIYDSSKLASGVPARFSGSGSGRDYTLTISSLEPEDFAVYYCQQWSRNPPTFGGGTKVEIK |
| 96% | 83% | 2% | 0.993 fraction | 0.935 fraction | 0.0842 fraction | 1 fraction | CD3B2042 (scFv) scFv: QVQLVQSGAEVKKPGSSVKVSCKASGYTFTRSTMHWVRQAPGQGLEWIGYINPSSAYTNYNQKFQGRVTLTADKSTSTAYMELSSLRSEDTAVYYCASPQVHYDYNGFPYWGQGTLVTVSSGGSEGKSSGSGSESKSTGGSEIVLTQSPATLSASPGERVTLSCSASSSVSYMNWYQQKPGTSPRRLIYDSSKLASGVPARFSGSGSGRDYTLTISSLEPEDFAVYYCQQWSRNPPTFGGGTKVEIK |
| 103% | 102% | 14% | 0.786 fraction | 1.04 fraction | 0.198 fraction | 1 fraction | CD3B2044 (scFv) scFv: QVQLVQSGAEVKKPGSSVKVSCKASGYTFTRSTMHWVRQAPGQGLEWIGYINPSSAYTNYNQKFQGRVTLTADKSTSTAYMELSSLRSEDTAVYYCASPQVHYDYNGFPYWGQGTLVTVSSGGSEGKSSGSGSESKSTGGSEIVLTQSPATLSASPGERVTLSCSASSSVSYMNWYQQKPGQSPRRWIYDSSKLASGVPARFSGSGSGRDYTLTISSLEPEDFAVYYCQQWSRNPPTFGGGTKVEIK |
| 108% | 92% | 11% | 1 fraction | 0.996 fraction | 0.185 fraction | 1 fraction | CD3B2063 (scFv) scFv: QVQLVQSGAEVKKPGSSVKVSCKASGYTFTRSTMHWVKQAPGQGLEWIGYINPSSAYTNYAQKFQGRVTLTADKSTSTAYMELSSLRSEDTAVYYCASPQVHYDYNGFPYWGQGTLVTVSSGGSEGKSSGSGSESKSTGGSEIVLTQSPATLSASPGERVTLSCSASSSVSYMNWYQQKPGTAPRRLIYDSSKLASGVPARFSGSGSGRDYTLTISSLEPEDFAVYYCQQWSRNPPTFGGGTKVEIK |
| 104% | 97% | 16% | 1.06 fraction | 1.11 fraction | 0.447 fraction | 1 fraction | CD3B2041 (scFv) scFv: QVQLVQSGAEVKKPGSSVKVSCKASGYTFTRSTMHWVRQAPGQGLEWIGYINPSSAYTNYNQKFQGRVTLTADKSTSTAYMELSSLRSEDTAVYYCASPQVHYDYNGFPYWGQGTLVTVSSGGSEGKSSGSGSESKSTGGSEIVLTQSPATLSASPGERVTLSCSASSSVSYMNWYQQKPGTAPRRWIYDSSKLASGVPARFSGSGSGRDYTLTISSLEPEDFAVYYCQQWSRNPPTFGGGTKVEIK |
| 111% | 107% | 33% | 1.17 fraction | 0.741 fraction | 0.241 fraction | 1 fraction | CD3B2064 (scFv) scFv: QVQLVQSGAEVKKPGSSVKVSCKASGYTFTRSTMHWVKQAPGQGLEWIGYINPSSAYTNYAQKFQGRVTLTADKSTSTAYMELSSLRSEDTAVYYCASPQVHYDYNGFPYWGQGTLVTVSSGGSEGKSSGSGSESKSTGGSEIVLTQSPATLSASPGERVTLSCSASSSVSYMNWYQQKPGQSPRRWIYDSSKLASGVPARFSGSGSGRDYTLTISSLEPEDFAVYYCQQWSRNPPTFGGGTKVEIK |
| 111% | 103% | 44% | 1.3 fraction | 1 fraction | 0.609 fraction | 1 fraction | CD3B2039 (scFv) scFv: QVQLVQSGAEVKKPGSSVKVSCKASGYTFTRSTMHWVKQAPGQGLEWMGYINPSSAYTNYAQKFQGRVTLTADKSTSTAYMELSSLRSEDTAVYYCASPQVHYDYNGFPYWGQGTLVTVSSGGSEGKSSGSGSESKSTGGSEIVLTQSPATLSASPGERVTLSCSASSSVSYMNWYQQKPGQSPRRWIYDSSKLASGVPARFSGSGSGRDYTLTISSLEPEDFAVYYCQQWSRNPPTFGGGTKVEIK |
| 112% | 110% | 20% | 1.05 fraction | 0.808 fraction | 0.174 fraction | 1 fraction | CD3B2058 (scFv) scFv: QVQLVQSGAEVKKPGSSVKVSCKASGYTFTRSTMHWVKQAPGQGLEWIGYINPSSAYTNYAQKFQGRVTLTADKSTSTAYMELSSLRSEDTAVYYCASPQVHYDYNGFPYWGQGTLVTVSSGGSEGKSSGSGSESKSTGGSEIVLTQSPATLSASPGERVTLSCSASSSVSYMNWYQQKPGTSPRRWIYDSSKLASGVPARFSGSGSGRDYTLTISSLEPEDFAVYYCQQWSRNPPTFGGGTKVEIK |
| 100% | 88% | 4% | 0.991 fraction | 0.906 fraction | 0.0805 fraction | 1 fraction | CD3B2043 (scFv) scFv: QVQLVQSGAEVKKPGSSVKVSCKASGYTFTRSTMHWVRQAPGQGLEWIGYINPSSAYTNYNQKFQGRVTLTADKSTSTAYMELSSLRSEDTAVYYCASPQVHYDYNGFPYWGQGTLVTVSSGGSEGKSSGSGSESKSTGGSEIVLTQSPATLSASPGERVTLSCSASSSVSYMNWYQQKPGTAPRRLIYDSSKLASGVPARFSGSGSGRDYTLTISSLEPEDFAVYYCQQWSRNPPTFGGGTKVEIK |

— patent US20250145711A1 (Janssen / Centocor, published 2025)
